Data as given in paper PMC9163516, “Convergent evolution of a parasite-encoded complement control protein-scaffold to mimic binding of mammalian TGF-β to its receptors, TβRI and TβRII” (The Journal of Biological Chemistry, 2022).
Residue numbers refer to the chain shown, from its start.

B1: biotinylated avi-tagged TGM-D3 (domain or fragment)
chain: GSGTGCPPLPDDGIVFYEYYGYAGDRHTVGPVVTKDSSGNYPSPTHARRRCRALSQEADPGEFVAICYKSGTTGESHWEYYKNIGKCPDP
modifications: a single biotin on the avi tag (BirA)
notes: also called TGM-D3 (SPR surface); not shown: Thioredoxin, N-terminal, cleaved; His6, N-terminal, cleaved
B2: TGM-D3 (domain or fragment)
chain: B1 chain
notes: also called WT TGM-D3; domain 3 of H. polygyrus TGF-β mimic; not shown: Thioredoxin, N-terminal, cleaved; His6, N-terminal, cleaved
B3: TGM-D3 K254A (domain or fragment)
chain: B1 chain with K82A
notes: also called Lys254Ala; not shown: Thioredoxin, N-terminal, cleaved; His6, N-terminal, cleaved
B4: TGM-D3 Y252A (domain or fragment)
chain: B1 chain with Y80A
notes: not shown: Thioredoxin, N-terminal, cleaved; His6, N-terminal, cleaved
B5: TGM-D3 I256A (domain or fragment)
chain: B1 chain with I84A
notes: also called Ile256Ala; not shown: Thioredoxin, N-terminal, cleaved; His6, N-terminal, cleaved
B6: TGM-D3 V236A (domain or fragment)
chain: B1 chain with V64A
notes: also called Val236Ala; not shown: Thioredoxin, N-terminal, cleaved; His6, N-terminal, cleaved
B7: TGM-D3 N255A (domain or fragment)
chain: B1 chain with N83A
notes: also called Asn255Ala; not shown: Thioredoxin, N-terminal, cleaved; His6, N-terminal, cleaved
B8: TGM-D3 I238A (domain or fragment)
chain: B1 chain with I66A
notes: as for B4
B9: TGM-D3 K258A (domain or fragment)
chain: B1 chain with K86A
notes: also called Lys258Ala; not shown: Thioredoxin, N-terminal, cleaved; His6, N-terminal, cleaved
B10: TGM-D3 F235A (domain or fragment)
chain: B1 chain with F63A
notes: also called Phe235Ala; not shown: Thioredoxin, N-terminal, cleaved; His6, N-terminal, cleaved
B11: TGM-D3 H199A (domain or fragment)
chain: B1 chain with H27A
notes: also called His199Ala; not shown: Thioredoxin, N-terminal, cleaved; His6, N-terminal, cleaved
B12: TGM-D12 (domain or fragment)
chain: DDSGCMPFSDEAATYKYVAKGPKNIEIPAQIDNSGMYPDYTHVKRFCKGLHGEDTTGWFVGICLASQWYYYEGVQECDDRRCSPLPTNDTVSFEYLKATVNPGIIFNITVHPDASGKYPELTYIKRICKNFPTDSNVQGHIIGMCYNAEWQFSSTPTCPAS
modifications: refolded from E. coli, disulfide-bonded; start from the listed D1 range (16-95), end set just before D3 (Cys178 is the first D3 cysteine; 7SXB places D3 at about 177-262); vector residues left after …
B13: TβRI ectodomain (receptor)
chain: LQCFCHLCTKDNFTCVTDGLCFVSVTETTDKVIHNSMCIAEIDLIPRDRPFVCAPSSKTGSVTTTYCCNQDHCNKIELPTTVKSSPGLGPVEL
notes: also called TGF-β type I receptor
B14: TGM-D2 (domain or fragment)
chain: RCSPLPTNDTVSFEYLKATVNPGIIFNITVHPDASGKYPELTYIKRICKNFPTDSNVQGHIIGMCYNAEWQFSSTPTCPAS
modifications: refolded from E. coli, disulfide-bonded; limits set between D1 (ends at 95) and D3 (starts at about 177); vector residues left after thrombin cleavage omitted

What was measured:
Details in all cases: both partners purified
TβRII D55N = target: T1, TβRII D55N (UniProt P37173 23-166, D55N); assay: SPR; biotinylated avi-tagged TGM-D3 captured (50-150 RU) on a neutravidin-coated CM-5 chip, TβRII and its variants injected; 25 mM Hepes, pH 7.4, 150 mM NaCl, 0.05% surfactant P20, 100 µl/min; 1:1 kinetic fit of duplicate or triplicate injection series
T1 construct: also called Asp55Asn

TβRII I73A = target: T2, TβRII I73A (UniProt P37173 23-166, I73A); assay: as above
T2 construct: also called Ile73Ala

TβRII S75L = target: T3, TβRII S75L (UniProt P37173 23-166, S75L); assay: as above
T3 construct: also called Ser75Leu

TβRII I76A = target: T4, TβRII I76A (UniProt P37173 23-166, I76A); assay: as above
T4 construct: also called Ile76Ala

TβRII E142Q = target: T5, TβRII E142Q (UniProt P37173 23-166, E142Q); assay: as above
T5 construct: also called Glu142Gln

TβRII ectodomain [1] = target: T6, TβRII ectodomain (UniProt P37173 23-166); assay: as above
T6 construct: also called WT TβRII; TGF-β type II receptor

TβRII ectodomain [2] = target: T6, TβRII ectodomain; assay: ITC; TGM construct in the syringe (300-320 µM), 15 µM TβRII in the cell; 25 mM sodium phosphate, 50 mM NaCl, pH 6.0, 35 °C; 1:1 model (Nitpic, Sedphat)
[3] = target: T7, biotinylated avi-tagged TβRII (UniProt P37173 23-166, a single biotin on the avi tag (BirA)); assay: SPR; biotinylated avi-tagged TβRII captured (50-150 RU) on a neutravidin-coated CM-5 chip, TGM-D3 and its variants injected; 25 mM Hepes, pH 7.4, 150 mM NaCl, 0.05% surfactant P20, 100 µl/min; 1:1 kinetic fit of duplicate or triplicate injection series
T7 construct: also called TβRII (SPR surface)

TβRI ectodomain = target: B13; assay: ITC; TGM construct titrated into TβRI in the cell; 25 mM Hepes, 50 mM NaCl, 0.05% NaN3, pH 7.5, 25 °C; 1:1 model
TGM-D2 = target: B14; assay: NMR titration; 1H-15N HSQC of 15N TGM-D2 or 15N TGM-D3 with 0 to 1.4 equivalents of unlabeled TβRI; 25 mM sodium phosphate, 50 mM NaCl, pH 7.0, 310 K (legend of Figure 3)

T1 sequence (P37173 23-166 D55N): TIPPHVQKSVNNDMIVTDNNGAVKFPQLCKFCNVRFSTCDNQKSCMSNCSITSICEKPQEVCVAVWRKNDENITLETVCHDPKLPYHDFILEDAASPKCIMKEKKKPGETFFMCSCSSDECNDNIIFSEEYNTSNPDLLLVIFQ
T6 sequence (P37173 23-166): as the sequence (P37173 23-166 D55N) above, with N33D counted along it
T7 sequence (P37173 23-166): as the sequence (P37173 23-166 D55N) above, with N33D counted along it
T3 sequence (P37173 23-166 S75L): as the sequence (P37173 23-166 D55N) above, with N33D, S53L counted along it
T4 sequence (P37173 23-166 I76A): as the sequence (P37173 23-166 D55N) above, with N33D, I54A counted along it
T5 sequence (P37173 23-166 E142Q): as the sequence (P37173 23-166 D55N) above, with N33D, E120Q counted along it
T2 sequence (P37173 23-166 I73A): as the sequence (P37173 23-166 D55N) above, with N33D, I51A counted along it

Binder	Kd [3] [µM]	koff [3] [s⁻¹]	kon [3] [M⁻¹ s⁻¹]	also measured
B1	–	–	–	Kd (TβRII D55N): 63 ± 1 µM; koff (TβRII D55N): 3.1 ± 0.1 s⁻¹; kon (TβRII D55N): 50000 M⁻¹ s⁻¹; Kd (TβRII I73A): 6.9 ± 0.1 µM; koff (TβRII I73A): 1.1 ± 0.1 s⁻¹; kon (TβRII I73A): 160000 M⁻¹ s⁻¹; Kd (TβRII S75L): 310 ± 30 µM; koff (TβRII S75L): 3.9 ± 0.9 s⁻¹; kon (TβRII S75L): 13000 M⁻¹ s⁻¹; Kd (TβRII I76A): 26 ± 1 µM; koff (TβRII I76A): 1.2 ± 0.1 s⁻¹; kon (TβRII I76A): 47000 M⁻¹ s⁻¹; Kd (TβRII E142Q): 17 ± 1 µM; koff (TβRII E142Q): 10 ± 10 s⁻¹; kon (TβRII E142Q): 410000 M⁻¹ s⁻¹; Kd (TβRII ectodomain [1]): 1.6 ± 0.1 µM; koff (TβRII ectodomain [1]): 0.7 ± 0.1 s⁻¹; kon (TβRII ectodomain [1]): 410000 M⁻¹ s⁻¹
B2	1.6 ± 0.1	0.26 ± 0.01	160000	Kd (TβRII ectodomain [2]): 1.2 µM; stoichiometry N (TβRII ectodomain [2]): 1.1
B3	35 ± 1	12 ± 6	300000	–
B4	21 ± 1	1.7 ± 0.1	78000	–
B5	1.6 ± 0.1	1.4 ± 0.1	880000	–
B6	4.6 ± 0.1	1.8 ± 0.1	380000	–
B7	2.7 ± 0.1	1.3 ± 0.1	480000	–
B8	25 ± 1	2.3 ± 0.1	94000	–
B9	2.7 ± 0.1	1.2 ± 0.1	430000	–
B10	4.1 ± 0.1	1.8 ± 0.2	450000	–
B11	3 ± 0.1	0.98 ± 0.01	330000	–
B12	–	–	–	Kd (TβRI ectodomain): 0.025 µM; dH (TβRI ectodomain): -19 kcal/mol; stoichiometry N (TβRI ectodomain): ~1
B13	–	–	–	stoichiometry N (TGM-D2): 1
B14	–	–	–	fold increase of KD against TGM-FL (TβRI ectodomain): ~50 fold; stoichiometry N (TβRI ectodomain): ~0.5
